One block for each binder: values may come before it. Starred links: 1 amine or outer side, 2 acyl side, 3 side chain; linkers in the order of their positions; H or OH if unused. Positions of bridges follow the written chain, without caps; N, C: chain ends. Non-standard residues stand in square brackets, D forms with d. St = two pentenyl-alanine olefin side chains, each crosslinked to another residue (stitch), C=CCCCC(CCCC=C)(N[*:1])C(=O)[*:2]; R8 = C=CCCCCCC[C@@](C)(N)C(=O)O; R5 = C=CCCC[C@@](C)(N)C(=O)O; S5 = C=CCCC[C@](C)(N)C(=O)O
Experiments:
[1] = target: T1, BCL-XL (UniProt Q07817 1-209); assay: Ki (Table 6); method not stated
T1 construct: Target of the Ki columns

[2] = target: T2, BCL-2 (UniProt P10415 1-217, limits assumed); assay: Ki (Table 6); method not stated
T2 construct: Target of the Ki columns

[3] = target: T1, BCL-XL; assay: Ki; method not stated; unit not printed (nM per Table 6)
[4] = target: T3, MCL-1 (UniProt Q07820 172-327, limits assumed); assay: as above
T3 construct: Target of the Ki columns; also called Myeloid cell leukemia 1

[5] = target: T2, BCL-2; assay: as above

T2 sequence (P10415 1-217 limits assumed): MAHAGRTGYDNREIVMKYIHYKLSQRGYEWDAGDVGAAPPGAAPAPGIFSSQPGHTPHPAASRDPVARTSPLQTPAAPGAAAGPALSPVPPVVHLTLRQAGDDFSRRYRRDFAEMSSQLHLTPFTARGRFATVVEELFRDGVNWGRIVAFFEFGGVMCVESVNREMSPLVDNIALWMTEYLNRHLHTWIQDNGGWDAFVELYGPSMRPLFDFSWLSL
T1 sequence (Q07817 1-209): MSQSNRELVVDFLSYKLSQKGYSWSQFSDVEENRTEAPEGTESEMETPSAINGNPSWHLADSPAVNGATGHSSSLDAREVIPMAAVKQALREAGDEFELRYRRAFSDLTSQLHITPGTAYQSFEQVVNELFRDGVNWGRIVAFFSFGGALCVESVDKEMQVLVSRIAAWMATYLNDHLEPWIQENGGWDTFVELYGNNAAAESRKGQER
T3 sequence (Q07820 172-327 limits assumed): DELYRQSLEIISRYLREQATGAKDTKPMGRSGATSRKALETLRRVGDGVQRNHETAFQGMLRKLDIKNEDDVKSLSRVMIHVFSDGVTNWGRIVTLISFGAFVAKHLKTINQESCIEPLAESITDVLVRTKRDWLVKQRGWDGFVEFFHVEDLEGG

Ki [1]: 28.8 nM
Ki [2]: 88.2 nM
B1: Cross-linked peptide #6 (peptide)
peptide: IWIAQALXAIGDQFNAYYA
modifications: not fully specified; N-terminal Ac; Cit at residue 8 (column 153); $r8 at residue 9 (column 154) and $ at residue 16 (column 161), crosslinked; C-terminal NH2

Ki [3]: 66.3 nM
Ki [4]: 6.6 nM
Ki [5]: 43.4 nM
B4: SEQ ID NO: 1766 (peptide)
peptide: Ac-IWIAAALR[R8]IGDAFN[S5]YYK-NH2
modifications: staple 9-16
SMILES: CC[C@H](C)[C@H](NC(C)=O)C(=O)N[C@@H](Cc1c[nH]c2ccccc12)C(=O)N[C@H](C(=O)N[C@@H](C)C(=O)N[C@@H](C)C(=O)N[C@@H](C)C(=O)N[C@@H](CC(C)C)C(=O)N[C@@H](CCCNC(=N)N)C(=O)N[C@]1(C)CCCCCCC=CCCC[C@@](C)(C(=O)N[C@@H](Cc2ccc(O)cc2)C(=O)N[C@@H](Cc2ccc(O)cc2)C(=O)N[C@@H](CCCCN)C(N)=O)NC(=O)[C@H](CC(N)=O)NC(=O)[C@H](Cc2ccccc2)NC(=O)[C@H](C)NC(=O)[C@H](CC(=O)O)NC(=O)CNC(=O)[C@H]([C@@H](C)CC)NC1=O)[C@@H](C)CC

Ki [3]: 73.8 nM
Ki [4]: 10.6 nM
Ki [5]: 98.8 nM
B8: SEQ ID NO: 1764 (peptide)
peptide: Ac-IWIAAALR[R8]IGDAFN[S5]YYH-NH2
modifications: staple 9-16
SMILES: CC[C@H](C)[C@H](NC(C)=O)C(=O)N[C@@H](Cc1c[nH]c2ccccc12)C(=O)N[C@H](C(=O)N[C@@H](C)C(=O)N[C@@H](C)C(=O)N[C@@H](C)C(=O)N[C@@H](CC(C)C)C(=O)N[C@@H](CCCNC(=N)N)C(=O)N[C@]1(C)CCCCCCC=CCCC[C@@](C)(C(=O)N[C@@H](Cc2ccc(O)cc2)C(=O)N[C@@H](Cc2ccc(O)cc2)C(=O)N[C@@H](Cc2c[nH]cn2)C(N)=O)NC(=O)[C@H](CC(N)=O)NC(=O)[C@H](Cc2ccccc2)NC(=O)[C@H](C)NC(=O)[C@H](CC(=O)O)NC(=O)CNC(=O)[C@H]([C@@H](C)CC)NC1=O)[C@@H](C)CC

Ki [3]: 24.2 nM
Ki [4]: 11.6 nM
Ki [5]: 57.7 nM
B10: SEQ ID NO: 1784 (peptide)
peptide: Ac-IWIAQALR[R8]IGDEFN[St]YYA[R5]A-NH2
modifications: staple 16-20, 9-16

Ki [3]: 44.1 nM
Ki [4]: 8 nM
Ki [5]: 67.5 nM
B12: SEQ ID NO: 1751 (peptide)
peptide: Ac-IWIAAALR[R8]IGDAFS[S5]YYA-NH2
modifications: staple 9-16
SMILES: CC[C@H](C)[C@H](NC(C)=O)C(=O)N[C@@H](Cc1c[nH]c2ccccc12)C(=O)N[C@H](C(=O)N[C@@H](C)C(=O)N[C@@H](C)C(=O)N[C@@H](C)C(=O)N[C@@H](CC(C)C)C(=O)N[C@@H](CCCNC(=N)N)C(=O)N[C@]1(C)CCCCCCC=CCCC[C@@](C)(C(=O)N[C@@H](Cc2ccc(O)cc2)C(=O)N[C@@H](Cc2ccc(O)cc2)C(=O)N[C@@H](C)C(N)=O)NC(=O)[C@H](CO)NC(=O)[C@H](Cc2ccccc2)NC(=O)[C@H](C)NC(=O)[C@H](CC(=O)O)NC(=O)CNC(=O)[C@H]([C@@H](C)CC)NC1=O)[C@@H](C)CC

Further lines, the binder ahead of its results:

B2: SEQ ID NO: 1760 (peptide)
peptide: Ac-IWIAAALR[R8]IGDAFN[S5]YYD-NH2
modifications: staple 9-16
SMILES: CC[C@H](C)[C@H](NC(C)=O)C(=O)N[C@@H](Cc1c[nH]c2ccccc12)C(=O)N[C@H](C(=O)N[C@@H](C)C(=O)N[C@@H](C)C(=O)N[C@@H](C)C(=O)N[C@@H](CC(C)C)C(=O)N[C@@H](CCCNC(=N)N)C(=O)N[C@]1(C)CCCCCCC=CCCC[C@@](C)(C(=O)N[C@@H](Cc2ccc(O)cc2)C(=O)N[C@@H](Cc2ccc(O)cc2)C(=O)N[C@@H](CC(=O)O)C(N)=O)NC(=O)[C@H](CC(N)=O)NC(=O)[C@H](Cc2ccccc2)NC(=O)[C@H](C)NC(=O)[C@H](CC(=O)O)NC(=O)CNC(=O)[C@H]([C@@H](C)CC)NC1=O)[C@@H](C)CC
Ki [3]: 116 nM
Ki [4]: 2.2 nM
Ki [5]: 138 nM

B3: SEQ ID NO: 1765 (peptide)
peptide: Ac-IWIAAALR[R8]IGDAFN[S5]YYR-NH2
modifications: staple 9-16
SMILES: CC[C@H](C)[C@H](NC(C)=O)C(=O)N[C@@H](Cc1c[nH]c2ccccc12)C(=O)N[C@H](C(=O)N[C@@H](C)C(=O)N[C@@H](C)C(=O)N[C@@H](C)C(=O)N[C@@H](CC(C)C)C(=O)N[C@@H](CCCNC(=N)N)C(=O)N[C@]1(C)CCCCCCC=CCCC[C@@](C)(C(=O)N[C@@H](Cc2ccc(O)cc2)C(=O)N[C@@H](Cc2ccc(O)cc2)C(=O)N[C@@H](CCCNC(=N)N)C(N)=O)NC(=O)[C@H](CC(N)=O)NC(=O)[C@H](Cc2ccccc2)NC(=O)[C@H](C)NC(=O)[C@H](CC(=O)O)NC(=O)CNC(=O)[C@H]([C@@H](C)CC)NC1=O)[C@@H](C)CC
Ki [3]: 186 nM
Ki [4]: 18.5 nM
Ki [5]: 142 nM

B5: SEQ ID NO: 1762 (peptide)
peptide: Ac-IWIAAALR[R8]IGDAFN[S5]YYQ-NH2
modifications: staple 9-16
SMILES: CC[C@H](C)[C@H](NC(C)=O)C(=O)N[C@@H](Cc1c[nH]c2ccccc12)C(=O)N[C@H](C(=O)N[C@@H](C)C(=O)N[C@@H](C)C(=O)N[C@@H](C)C(=O)N[C@@H](CC(C)C)C(=O)N[C@@H](CCCNC(=N)N)C(=O)N[C@]1(C)CCCCCCC=CCCC[C@@](C)(C(=O)N[C@@H](Cc2ccc(O)cc2)C(=O)N[C@@H](Cc2ccc(O)cc2)C(=O)N[C@@H](CCC(N)=O)C(N)=O)NC(=O)[C@H](CC(N)=O)NC(=O)[C@H](Cc2ccccc2)NC(=O)[C@H](C)NC(=O)[C@H](CC(=O)O)NC(=O)CNC(=O)[C@H]([C@@H](C)CC)NC1=O)[C@@H](C)CC
Ki [3]: 41.1 nM
Ki [4]: 4.6 nM
Ki [5]: 64.7 nM

B6: SEQ ID NO: 1761 (peptide)
peptide: Ac-IWIAAALR[R8]IGDAFN[S5]YYE-NH2
modifications: staple 9-16
SMILES: CC[C@H](C)[C@H](NC(C)=O)C(=O)N[C@@H](Cc1c[nH]c2ccccc12)C(=O)N[C@H](C(=O)N[C@@H](C)C(=O)N[C@@H](C)C(=O)N[C@@H](C)C(=O)N[C@@H](CC(C)C)C(=O)N[C@@H](CCCNC(=N)N)C(=O)N[C@]1(C)CCCCCCC=CCCC[C@@](C)(C(=O)N[C@@H](Cc2ccc(O)cc2)C(=O)N[C@@H](Cc2ccc(O)cc2)C(=O)N[C@@H](CCC(=O)O)C(N)=O)NC(=O)[C@H](CC(N)=O)NC(=O)[C@H](Cc2ccccc2)NC(=O)[C@H](C)NC(=O)[C@H](CC(=O)O)NC(=O)CNC(=O)[C@H]([C@@H](C)CC)NC1=O)[C@@H](C)CC
Ki [3]: 45.4 nM
Ki [4]: 1.4 nM
Ki [5]: 56.4 nM

B7: SEQ ID NO: 1763 (peptide)
peptide: Ac-IWIAAALR[R8]IGDAFN[S5]YYS-NH2
modifications: staple 9-16
SMILES: CC[C@H](C)[C@H](NC(C)=O)C(=O)N[C@@H](Cc1c[nH]c2ccccc12)C(=O)N[C@H](C(=O)N[C@@H](C)C(=O)N[C@@H](C)C(=O)N[C@@H](C)C(=O)N[C@@H](CC(C)C)C(=O)N[C@@H](CCCNC(=N)N)C(=O)N[C@]1(C)CCCCCCC=CCCC[C@@](C)(C(=O)N[C@@H](Cc2ccc(O)cc2)C(=O)N[C@@H](Cc2ccc(O)cc2)C(=O)N[C@@H](CO)C(N)=O)NC(=O)[C@H](CC(N)=O)NC(=O)[C@H](Cc2ccccc2)NC(=O)[C@H](C)NC(=O)[C@H](CC(=O)O)NC(=O)CNC(=O)[C@H]([C@@H](C)CC)NC1=O)[C@@H](C)CC
Ki [3]: 36 nM
Ki [4]: 4.7 nM
Ki [5]: 62.4 nM

B9: SEQ ID NO: 1753 (peptide)
peptide: Ac-IWIAAALR[R8]IGDAFN[S5]LYA-NH2
modifications: staple 9-16
SMILES: CC[C@H](C)[C@H](NC(C)=O)C(=O)N[C@@H](Cc1c[nH]c2ccccc12)C(=O)N[C@H](C(=O)N[C@@H](C)C(=O)N[C@@H](C)C(=O)N[C@@H](C)C(=O)N[C@@H](CC(C)C)C(=O)N[C@@H](CCCNC(=N)N)C(=O)N[C@]1(C)CCCCCCC=CCCC[C@@](C)(C(=O)N[C@@H](CC(C)C)C(=O)N[C@@H](Cc2ccc(O)cc2)C(=O)N[C@@H](C)C(N)=O)NC(=O)[C@H](CC(N)=O)NC(=O)[C@H](Cc2ccccc2)NC(=O)[C@H](C)NC(=O)[C@H](CC(=O)O)NC(=O)CNC(=O)[C@H]([C@@H](C)CC)NC1=O)[C@@H](C)CC
Ki [3]: 69.9 nM
Ki [4]: 17.6 nM
Ki [5]: 125 nM

B11: SEQ ID NO: 1750 (peptide)
peptide: Ac-IWIAAALR[R8]IGDAFQ[S5]YYA-NH2
modifications: staple 9-16
SMILES: CC[C@H](C)[C@H](NC(C)=O)C(=O)N[C@@H](Cc1c[nH]c2ccccc12)C(=O)N[C@H](C(=O)N[C@@H](C)C(=O)N[C@@H](C)C(=O)N[C@@H](C)C(=O)N[C@@H](CC(C)C)C(=O)N[C@@H](CCCNC(=N)N)C(=O)N[C@]1(C)CCCCCCC=CCCC[C@@](C)(C(=O)N[C@@H](Cc2ccc(O)cc2)C(=O)N[C@@H](Cc2ccc(O)cc2)C(=O)N[C@@H](C)C(N)=O)NC(=O)[C@H](CCC(N)=O)NC(=O)[C@H](Cc2ccccc2)NC(=O)[C@H](C)NC(=O)[C@H](CC(=O)O)NC(=O)CNC(=O)[C@H]([C@@H](C)CC)NC1=O)[C@@H](C)CC
Ki [3]: 36.5 nM
Ki [4]: 4.9 nM
Ki [5]: 71.6 nM

B13: SEQ ID NO: 1752 (peptide)
peptide: Ac-IWIAAALR[R8]IGDAFH[S5]YYA-NH2
modifications: staple 9-16
SMILES: CC[C@H](C)[C@H](NC(C)=O)C(=O)N[C@@H](Cc1c[nH]c2ccccc12)C(=O)N[C@H](C(=O)N[C@@H](C)C(=O)N[C@@H](C)C(=O)N[C@@H](C)C(=O)N[C@@H](CC(C)C)C(=O)N[C@@H](CCCNC(=N)N)C(=O)N[C@]1(C)CCCCCCC=CCCC[C@@](C)(C(=O)N[C@@H](Cc2ccc(O)cc2)C(=O)N[C@@H](Cc2ccc(O)cc2)C(=O)N[C@@H](C)C(N)=O)NC(=O)[C@H](Cc2c[nH]cn2)NC(=O)[C@H](Cc2ccccc2)NC(=O)[C@H](C)NC(=O)[C@H](CC(=O)O)NC(=O)CNC(=O)[C@H]([C@@H](C)CC)NC1=O)[C@@H](C)CC
Ki [3]: 36.3 nM
Ki [4]: 8 nM
Ki [5]: 57.4 nM
